± gives the standard error. For part of these data: This sample holds only a part of the variants without activity.
B1: glmS ribozyme (parent)
chain: AUAAAAGCGCCAGAACUACAGAAAUGUAGUUGACGAGGAGGAGGUUUAUCGAAUUUUCGGCGGAUGCCUCCAAA

Columns and labels:
Settings in all cases: with glucosamine-6-phosphate
[1] = variants of: B1; assay: kcat; higher = faster cleavage; RNA array
How it was run: (§1)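 Glucosamine-6-phosphate in HEPES/KCl/Mg(OAc)2 buffer, at 40 μM to 10 mM, was flowed over barcoded ribozyme variants transcribed in situ by E. coli RNA polymerase on sequenced MiSeq chips. Tracking was through a hybridised Cy3 probe at 37 °C. kobs, kcat and KM came from exponential decay fits and weighted Michaelis–Menten fits of normalised per-tile medians.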

[2] = variants of: B1; assay: self-cleavage kobs at 40 uM GlcN6P; higher = faster cleavage; RNA array
How it was run: as §1

[3] = variants of: B1; assay: self-cleavage kobs at 160 uM GlcN6P; higher = faster cleavage; RNA array
How it was run: as §1

[4] = variants of: B1; assay: self-cleavage kobs at 640 uM GlcN6P; higher = faster cleavage; RNA array
How it was run: as §1

[5] = variants of: B1; assay: self-cleavage kobs at 2500 uM GlcN6P; higher = faster cleavage; RNA array
How it was run: as §1

[6] = variants of: B1; assay: self-cleavage kobs at 10000 uM GlcN6P; higher = faster cleavage; RNA array
How it was run: as §1

[7] = variants of: B1; assay: KM; higher = weaker cofactor use; RNA array
How it was run: as §1

Row | Variant | kcat [1] | self-cleavage kobs at 40 uM GlcN6P [2] | self-cleavage kobs at 160 uM GlcN6P [3] | self-cleavage kobs at 640 uM GlcN6P [4] | self-cleavage kobs at 2500 uM GlcN6P [5] | self-cleavage kobs at 10000 uM GlcN6P [6] | KM [7]
1 | U54G C70A | 0.000123 ± 2.4e-05 s⁻¹ | 8.02e-05 ± 1.4e-05 s⁻¹ | 7.71e-05 ± 1.8e-05 s⁻¹ | 0.000198 ± 2.9e-05 s⁻¹ | 0.000143 ± 2.9e-05 s⁻¹ | 0.000109 ± 1.6e-05 s⁻¹ | –
2 | U56G C58A | 0.000993 ± 0.00023 s⁻¹ | – | – | 7.48e-05 ± 1.1e-05 s⁻¹ | 0.000312 ± 3.6e-05 s⁻¹ | 0.000556 ± 7.1e-05 s⁻¹ | 6930 ± 2300 µM
3 | U57A | 0.000404 ± 1.3e-05 s⁻¹ | – | 2.27e-05 ± 2.2e-06 s⁻¹ | 6.91e-05 ± 1.6e-06 s⁻¹ | 0.000175 ± 4e-06 s⁻¹ | 0.000311 ± 6.3e-06 s⁻¹ | 3120 ± 170 µM
4 | U57C | 0.000311 ± 3.8e-06 s⁻¹ | – | 1.34e-05 ± 2.2e-06 s⁻¹ | 5.24e-05 ± 1.5e-06 s⁻¹ | 0.000136 ± 3.2e-06 s⁻¹ | 0.000236 ± 4.4e-06 s⁻¹ | 3180 ± 76 µM
5 | U57G | 0.000109 ± 3.4e-06 s⁻¹ | – | – | 2.22e-05 ± 1.9e-06 s⁻¹ | 4.95e-05 ± 1.4e-06 s⁻¹ | 8.52e-05 ± 1.5e-06 s⁻¹ | 2910 ± 250 µM
6 | G59A C67A | 1.53e-05 ± 3.7e-06 s⁻¹ | – | – | – | – | – | –
7 | U54A G66U | 0.00199 ± 0.00037 s⁻¹ | 8.58e-05 ± 1.9e-05 s⁻¹ | 0.000194 ± 3.3e-05 s⁻¹ | 0.000521 ± 8e-05 s⁻¹ | 0.00141 ± 0.00024 s⁻¹ | 0.00174 ± 0.00024 s⁻¹ | 1460 ± 440 µM
8 | U54A G66C | 0.000876 ± 0.00013 s⁻¹ | – | 0.00012 ± 2.7e-05 s⁻¹ | 0.000259 ± 6.7e-05 s⁻¹ | 0.000758 ± 0.00014 s⁻¹ | 0.000737 ± 0.0001 s⁻¹ | 1230 ± 390 µM
9 | C58U A64C C70A | 1.83e-05 ± 1.5e-06 s⁻¹ | < 1e-05 s⁻¹ | – | – | – | – | 363 ± 120 µM
10 | U54C C70U | 0.00794 ± 0.0014 s⁻¹ | 0.000628 ± 8e-05 s⁻¹ | 0.00162 ± 0.00035 s⁻¹ | 0.00435 ± 0.0008 s⁻¹ | – | 0.00879 ± 0.0016 s⁻¹ | 507 ± 130 µM
11 | U54C C70G | 0.000186 ± 3.5e-05 s⁻¹ | 5.08e-05 ± 1.5e-05 s⁻¹ | 0.000109 ± 3.8e-05 s⁻¹ | 0.000175 ± 2.3e-05 s⁻¹ | 0.000139 ± 2.6e-05 s⁻¹ | 0.000325 ± 6.2e-05 s⁻¹ | –
12 | A53U U65G | 0.00461 ± 0.00078 s⁻¹ | 3.59e-05 ± 7e-06 s⁻¹ | 0.000238 ± 5.5e-05 s⁻¹ | 0.000611 ± 0.00011 s⁻¹ | 0.00152 ± 0.0002 s⁻¹ | 0.00323 ± 0.00034 s⁻¹ | 4560 ± 1200 µM
13 | A53U U65C | 0.000266 ± 3.1e-05 s⁻¹ | – | – | 8.76e-05 ± 1.6e-05 s⁻¹ | 0.000196 ± 5.3e-05 s⁻¹ | 0.000222 ± 4.6e-05 s⁻¹ | 1370 ± 310 µM
14 | U55G U57C | 0.000252 ± 3.3e-05 s⁻¹ | < 1e-05 s⁻¹ | – | 3.51e-05 ± 1e-05 s⁻¹ | 7.83e-05 ± 1.6e-05 s⁻¹ | 0.000174 ± 2.6e-05 s⁻¹ | 4830 ± 1100 µM
15 | U55C C58G | 0.000215 ± 1.3e-05 s⁻¹ | – | – | – | 3.85e-05 ± 1.1e-05 s⁻¹ | 9.91e-05 ± 1.2e-05 s⁻¹ | –
16 | U56C C71A | 4.36e-05 ± 8.2e-06 s⁻¹ | – | – | – | 5.14e-05 ± 1.2e-05 s⁻¹ | 3.76e-05 ± 9e-06 s⁻¹ | –
17 | U55C U56C | 9.63e-05 ± 1.9e-05 s⁻¹ | – | – | 4.92e-05 ± 2e-05 s⁻¹ | 5.28e-05 ± 1e-05 s⁻¹ | 8.84e-05 ± 1.5e-05 s⁻¹ | –

Row | Variant | kcat [1] | self-cleavage kobs at 40 uM GlcN6P [2] | self-cleavage kobs at 160 uM GlcN6P [3] | self-cleavage kobs at 640 uM GlcN6P [4] | self-cleavage kobs at 2500 uM GlcN6P [5] | self-cleavage kobs at 10000 uM GlcN6P [6] | KM [7]
18 | U55C C68U | 3.04e-05 ± 1.7e-06 s⁻¹ | – | – | – | – | 2.9e-05 ± 9.1e-06 s⁻¹ | –
19 | G59U C71G | 1.13e-05 ± 1.7e-07 s⁻¹ | < 1e-05 s⁻¹ | < 1e-05 s⁻¹ | – | – | – | 817 ± 71 µM
20 | U57G G59U U65G C68U | 1.85e-05 ± 4.8e-06 s⁻¹ | – | – | – | – | – | –
21 | C58G U69G | 4.22e-05 ± 1.4e-05 s⁻¹ | – | 6.03e-05 ± 1.5e-05 s⁻¹ | 5.7e-05 ± 1.7e-05 s⁻¹ | 5.1e-05 ± 1.6e-05 s⁻¹ | – | –
22 | C58U C70U | 0.000128 ± 1.9e-05 s⁻¹ | – | – | – | 4.75e-05 ± 5.9e-06 s⁻¹ | 8.61e-05 ± 8.8e-06 s⁻¹ | 4650 ± 1400 µM
23 | U54A U56A | 0.0109 ± 0.0014 s⁻¹ | 0.00022 ± 4e-05 s⁻¹ | 0.000706 ± 0.0002 s⁻¹ | 0.00224 ± 0.00048 s⁻¹ | 0.00712 ± 0.002 s⁻¹ | 0.00887 ± 0.0017 s⁻¹ | 2140 ± 380 µM
24 | U55C A64C | 1.63e-05 ± 1.9e-06 s⁻¹ | – | < 1e-05 s⁻¹ | – | – | – | –
25 | U57C A64G | 0.000236 ± 3.1e-06 s⁻¹ | – | – | 3.93e-05 ± 7.8e-06 s⁻¹ | 0.000106 ± 1.3e-05 s⁻¹ | 0.000179 ± 1.7e-05 s⁻¹ | 3140 ± 87 µM
26 | A53G U69G | 6.03e-05 ± 8.2e-06 s⁻¹ | 5.96e-05 ± 1e-05 s⁻¹ | 0.000101 ± 1.8e-05 s⁻¹ | 6.89e-05 ± 1.2e-05 s⁻¹ | 5.73e-05 ± 9.6e-06 s⁻¹ | 5.13e-05 ± 8e-06 s⁻¹ | –
27 | U57A U69G | 4.58e-05 ± 6.6e-06 s⁻¹ | – | 3.35e-05 ± 1.6e-05 s⁻¹ | 5.15e-05 ± 1.3e-05 s⁻¹ | 3.88e-05 ± 1.3e-05 s⁻¹ | – | –
28 | G59C C68G | 2.78e-05 ± 1e-05 s⁻¹ | – | – | – | – | – | –
29 | C58G C71A | 3.56e-05 ± 9.8e-06 s⁻¹ | – | 4.45e-05 ± 1e-05 s⁻¹ | – | 4.27e-05 ± 7.5e-06 s⁻¹ | 1.89e-05 ± 9.2e-06 s⁻¹ | –
30 | C58G C71G | 2.97e-05 ± 5.4e-06 s⁻¹ | – | – | 3.12e-05 ± 1.3e-05 s⁻¹ | 3.56e-05 ± 1.5e-05 s⁻¹ | – | –
31 | C58A U65C | 6.66e-05 ± 7.6e-06 s⁻¹ | – | – | – | – | 4.42e-05 ± 2.2e-05 s⁻¹ | 5030 ± 1300 µM
32 | C58A U65A | 1.58e-05 ± 1.9e-06 s⁻¹ | – | – | – | – | – | –
33 | U57C C67G | 2.59e-05 ± 3.7e-06 s⁻¹ | < 1e-05 s⁻¹ | – | – | 3.12e-05 ± 1.1e-05 s⁻¹ | 2.21e-05 ± 8.5e-06 s⁻¹ | –
34 | A53U C70G | 0.000152 ± 2.3e-05 s⁻¹ | 8.15e-05 ± 2.5e-05 s⁻¹ | 6.88e-05 ± 7.7e-06 s⁻¹ | 0.000133 ± 1.5e-05 s⁻¹ | 0.000136 ± 2.3e-05 s⁻¹ | 0.000142 ± 2.6e-05 s⁻¹ | 168 ± 74 µM
